{
  "source": "patent US5935840A",
  "about": "“Activated recombinant adenovirus proteinases” (priority 1995, dated 1999)",
  "key": {"[1]": {"test_system": "Ad2 proteinase (rEP protein)", "type": "biochemical, human adenovirus type 2", "conditions": "disrupted H2ts1 virus treated with DNase prior to the assay, plus recombinant proteinase", "excerpt": "(§1) The nature of the proteinase cofactor(s) was pursued with the aid of the second assay, which utilizes the substrate (Leu-Arg-Gly-Gly-NH)2 -rhodamine. The design of this substrate was based on two facts. (1) It was known that the proteinase present in disrupted Ad2 virions would cleave small peptides with sequence similar to that found at natural cleavage sites in adenovirus virion precursors (Webster et al., 1989). (2) Cleavage of either tetra-peptide sequence from the substituted rhodamine substrate produces a very large increase, up to a 3500-fold, in fluorescence. Under conditions where only a small fraction of the rhodamine substrate is cleaved, the increase in fluorescence is proportional to the amount of proteinase present and to the time of incubation. Thus, the fluorescence assay provides a quantitative method for assessing proteinase activity that is more sensitive convenient and rapid than the gel electrophoresis assay.\n(§2) After determining the identity of the two cofactors, reconstitution of adenovirus proteinase activity in vitro with purified components was accomplished. […] In (a), Assays in 1 ml contained 1.2 nM rEP protein, 11.9 pM Ad2 DNA and the indicated concentrations of pVI-c peptide. The rate of substrate hydrolysis is the rate in the reaction minus the rate with the rEP protein and Ad2 DNA alone which was 0.068 pmol min^-1. In (b), Assays in 1 ml contained 1.2 nM rEP protein, 36 nM pVI-c peptide and the indicated concentrations of Ad2 DNA. The rate of substrate hydrolysis is the rate in the reaction minus the rate with the rEP protein and pVI-c alone which was 2.76 pmol min^-1. The concentration of (Leu-Arg-Gly-Gly-NH)2 -rhodamine was 5 μM, and its rate of hydrolysis to Leu-Arg-Gly-Gly-NH-rhodamine was determined by measuring the increase in fluorescence every 3 minutes for 15 minutes. The pVI-c peptide was assembled in a peptide synthesizer.\n(§3) Assays were performed in 400 μl of Assay Buffer (50 mM Tris-HCl, pH 7.4, 25 mM NaCl, 10 mM octylglucoside, and 1 mM dithiothreitol). The concentration of the fluorogenic substrate, (Leu-Arg-Gly-Gly-NH)2 -rhodamine was 5 μM. When present, the number of disrupted virus particles was 10^10 and the amount of recombinant proteinase was 0.12 mAU280 nm. […] After 30 minutes at 37° C., a 360 μl aliquot of the reaction was added to 340 μl of Assay Buffer minus octylglucoside, and the increase in fluorescence was measured. The excitation wavelength was 492 nm and the emission wavelength was 523 nm, both with a bandwidth of 5 nm. The change in fluorescence, ΔF, is the magnitude of the fluorescence from the sample minus the magnitude of the fluorescence from an identical solution without enzyme.\n(§4) DNase-treated disrupted virus was obtained by incubating 2×10^10 disrupted virions in 20 μl containing 0.1M NaAc, pH 5.0, 5 mM MgCl2, and 55 μg/ml DNase I for 4 minutes at 25° C. Then, EDTA to 23 mM and dithiothreitol to 2.3 mM were added, and the reactions were heated at 56° C. for 1 minute to inactivate the DNase.\n(§5) For the assays shown in FIG. 8, the DNase reactions were diluted by the addition of 380 μl Assay Buffer containing the substrate, the proteinase and either 2×10^10 molecules of Ad2 DNA (+) or no DNA (-). After 30 minutes at 37° C., 360 μl of the reactions were added to 340 μl Assay Buffer minus octylglucoside and the increase in fluorescence was measured. The assays in (B) and (C) were identical to those in (A) except that in (B) H2ts1 virus was added after the DNase was inactivated (i-DNase) and in (C) no Dnase was present. In (D) recombinant proteinase plus 10^10 molecules of Ad2 DNA were preincubated for 10 minutes at 37° C. before adding substrate.\n(§6) .dagger. All assays contained 8.3 nM rEP protein, 98 nM pVIc peptide, and\n(§7) 1 μM (Leu--Arg--Gly--Gly--NH)2rhodamine. The rate of substrate"}, "[2]": {"target": "T1, recombinant Ad2 proteinase (Human adenovirus C serotype 2, UniProt P03252)", "T1 construct": "also expresses the wild-type 204-amino acid EP polypeptide; made in house; host or cells: E. coli BL21(DE3)", "T1 sequence (P03252 whole entry)": "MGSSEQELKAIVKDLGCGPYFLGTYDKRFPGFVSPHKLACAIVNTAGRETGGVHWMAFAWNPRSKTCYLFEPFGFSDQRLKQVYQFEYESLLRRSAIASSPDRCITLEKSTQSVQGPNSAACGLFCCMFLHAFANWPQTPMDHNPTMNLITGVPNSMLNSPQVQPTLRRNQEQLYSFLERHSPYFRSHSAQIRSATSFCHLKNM", "assay": "Cofactor activity in HEP1DBP cleavage by recombinant Ad2 proteinase", "type": "biochemical, human adenovirus type 2", "conditions": "peptide mixed with recombinant Ad2 proteinase and Ad2 DNA", "protocol": "When purified HEP1DBP was incubated with disrupted wild-type adenovirus 2 virions, it was cleaved, as determined from the change in its mobility during SDS-polyacrylamide gel electrophoresis. No cleavage was observed when incubation was with disrupted H2ts1 virions alone.\nTo determine if the Ad12 carboxy-terminal fragment of pVI functioned as the EP co-factor, the corresponding synthetic peptide was mixed with recombinant Ad2 proteinase and Ad2 DNA, and incubated with the HEP1DBP substrate."}, "[3]": {"target": "T2, Ad2 proteinase (rEP protein) (Human adenovirus C serotype 2, UniProt P03252)", "T2 construct": "Plasmid pT7AD23k6 contains the 204 codons of the Ad2 proteinase reading frame plus a translational termination codon; made in house; host or cells: E. coli BL21(DE3)", "T2 sequence (P03252 whole entry)": "as above", "type": "biochemical, human adenovirus type 2", "conditions": "1.2 nM rEP protein, 36 nM pVI-c peptide, no DNA, 5 μM substrate, 1 ml", "excerpt": "as §1, §2, §3, §4, §5, §6, §7"}, "[4]": {"assay": "Stability/sensitivity of the peptide cofactor", "type": "physicochemical", "conditions": "boiling for 5 minutes"}, "[5]": {"test_system": "Ad2 major core protein precursor, pVII", "assay": "Assay of adenovirus proteinase activity in crude extracts: cleavage of [35S]-methionine-labeled pVII (SDS-PAGE, autoradiography)", "type": "biochemical, adenovirus type 2", "conditions": "purified from baculovirus-infected Sf9 insect cells"}, "[6]": {"test_system": "(Leu-Arg-Gly-Gly-NH)2 -rhodamine", "assay": "Fluorescence assay of proteinase activity of virus and recombinant proteinase preparations", "type": "biochemical", "conditions": "about 5% pure, from Sf9 cells; Ad2 DNA and H2ts1 virions to provide cofactor", "excerpt": "as §1\nas §3, with “The concentration of the fluorogenic substrate, (Leu-Arg-Gly-Gly-NH)2 -rhodamine was 5 μM.” left out\nDisrupted virus was obtained as follows: Twice CsCl-banded virus was dialyzed against 10 mM Tris-HCl, pH 8.0, 1mM EDTA and centrifuged at 100,000×g for 1 hour. The pellet was suspended in 10 mM Tris-HCl, pH 6.8, containing 20% (v/v) glycerol and, after three 10 second bursts of sonication, was stored at -20° C. The fluorogenic substrate was synthesized and purified at BNL by Dr. Walter Mangel, using methods similar to those previously described by Dr. Mangel. These methods are described in two U.S. Patents (U.S. Pat. No. 4,557,862 entitled \"Rhodamine derivatives as fluorogenic substrates for proteinases\" by Mangel, W. F., Leytus, S., and L. Helhado; issued Dec. 10, 1985; U.S. patent application Ser. No. 780,552; \"Novel rhodamine derivatives as fluorogenic substrates\" by Mangel, W. F., Leytus, S., and L. Helhado; filing date Sep. 24, 1985) and in other publications by Mangel and co-workers."}},
  "data": [
    {"substance": "DNase", "values": [
      {"measurement": "Proteinase activity lost relative to untreated H2ts1 virus", "setting": "[1]", "value": 94, "unit": "%"}
    ]},
    {"substance": "GVQSLHRRRCF [pVI-c peptide]", "values": [
      {"measurement": "Cleavage of the HEP1DBP substrate", "setting": "[2]", "value": "Rapid and complete cleavage"},
      {"measurement": "Rate of substrate hydrolysis with the rEP protein and pVI-c alone", "setting": "[3]", "value": 2.76, "unit": "pmol min^-1"},
      {"measurement": "Heat stability of cofactor activity", "setting": "[4]", "value": "did not irreversibly denature"}
    ]},
    {"substance": "vNPVAd2EP: recombinant Ad2 proteinase expressed in Sf9 insect cells from baculovirus vector vNPVAd2EP", "values": [
      {"measurement": "Activity in the crude extract assay", "setting": "[5]", "value": "active"},
      {"measurement": "Specific activity", "setting": "[6]", "value": "equivalent to that of bacterially-produced proteinase"}
    ]}
  ]
}
